# Literature values in article PMC9133541.
# Biological target: ExoS peptide (Pseudomonas aeruginosa) (UniProt G3XDA1)
# Test: ITC
# Sequence of UniProt G3XDA1 (G3XDA1 whole entry): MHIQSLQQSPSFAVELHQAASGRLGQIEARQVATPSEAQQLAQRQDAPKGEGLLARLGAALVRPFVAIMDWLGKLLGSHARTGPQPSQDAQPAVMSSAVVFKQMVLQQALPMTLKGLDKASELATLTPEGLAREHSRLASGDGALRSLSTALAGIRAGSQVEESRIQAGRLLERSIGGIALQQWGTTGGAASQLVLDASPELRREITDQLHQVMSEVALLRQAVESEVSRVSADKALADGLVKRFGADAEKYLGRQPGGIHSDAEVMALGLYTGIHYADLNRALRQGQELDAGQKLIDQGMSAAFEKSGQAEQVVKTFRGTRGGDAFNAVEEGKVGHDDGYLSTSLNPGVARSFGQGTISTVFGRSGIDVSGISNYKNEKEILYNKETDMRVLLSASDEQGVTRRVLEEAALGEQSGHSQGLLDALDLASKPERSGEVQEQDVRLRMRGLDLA
substance,measurement,value
14-3-3 sigma (from UniProt P31947),Kd,45.6 µM
